Results from PMC8537121.

Tests used:
[1] = target: Human MAP/Microtubule Affinity Regulating Kinase 4 (MARK4), recombinant, containing both kinase and UBA domains (human) (UniProt Q96L34); test: other fluorescence titration; quenching of the intrinsic fluorescence of MARK4 (emission at 344 nm) by irisin, 0-1 µM; fitted to a modified Stern-Volmer equation
[2] = target: Human MAP/Microtubule Affinity Regulating Kinase 4 (MARK4), recombinant, containing both kinase and UBA domains (human) (UniProt Q96L34); test: ITC; VP-ITC; 15 µM MARK4 in the sample cell, 200 µM irisin in the syringe; two-site model
[3] = target: Human MAP/Microtubule Affinity Regulating Kinase 4 (MARK4), recombinant, containing both kinase and UBA domains (human) (UniProt Q96L34)

Chain of UniProt Q96L34 (Q96L34 44-370): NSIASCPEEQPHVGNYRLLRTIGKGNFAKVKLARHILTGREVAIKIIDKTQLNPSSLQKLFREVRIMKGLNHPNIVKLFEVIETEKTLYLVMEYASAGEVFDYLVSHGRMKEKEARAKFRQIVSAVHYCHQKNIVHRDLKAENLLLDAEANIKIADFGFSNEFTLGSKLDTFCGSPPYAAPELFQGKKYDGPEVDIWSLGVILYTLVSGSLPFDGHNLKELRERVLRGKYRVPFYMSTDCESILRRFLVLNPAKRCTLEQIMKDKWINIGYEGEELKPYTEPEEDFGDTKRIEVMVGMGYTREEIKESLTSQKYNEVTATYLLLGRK

Human irisin (natural protein)
Ka [1]: 8e+06 M⁻¹ | Ka1 (site 1 of the two-site model) [2]: 2590 M⁻¹ | Ka2 (site 2 of the two-site model) [2]: 1.19e+06 M⁻¹ | dH1 (site 1 of the two-site model) [2]: -1.55e+06 cal/mol | dH2 (site 2 of the two-site model) [2]: 190000 cal/mol | IC50 of inhibition of MARK4 kinase activity (ATPase assay), irisin 0-15 µM [3]: 2.71 µM
